This is an account of results in PMC7021683, “RNA sequence and length contribute to RNA-induced conformational change of TLS/FUS”.

In data set [1] the target is T1, MBP-BFP-TLS-GFP-6xHis (TLS/FUS) (UniProt P35637 1-526). Put plainly: FRET; Anisotropy: 5 mM Tris-HCl pH 7.6, 25 mM NaCl, 0.1% CHAPS, 2.5 mM glucose, 0.5 mM DTT, 25 C, 100 nM TAMRA-RNA; FRET buffer not in material. Conditions: protein: recombinant; tags: N-term MBP, TagBFP; C-term TagGFP2, 6xHis.
Data set [2] addresses T1, MBP-BFP-TLS-GFP-6xHis (TLS/FUS). Described as above. Conditions: protein: recombinant, tags: N-term MBP, TagBFP, C-term TagGFP2, 6xHis.
The target is the same in data set [3]. Put plainly: fluorescence anisotropy; 100 nM RNA; Anisotropy: 5 mM Tris-HCl pH 7.6, 25 mM NaCl, 0.1% CHAPS, 2.5 mM glucose, 0.5 mM DTT, 25 C, 100 nM TAMRA-RNA; FRET buffer not in material. Conditions: protein: recombinant; tags: N-term MBP, TagBFP; C-term TagGFP2, 6xHis; label: TAMRA. (In general: Polarisation of emitted light reports the rotation of a fluorescent probe.)

Data set [4] shares this target. Put plainly: FRET; Anisotropy: 5 mM Tris-HCl pH 7.6, 25 mM NaCl, 0.1% CHAPS, 2.5 mM glucose, 0.5 mM DTT, 25 C, 100 nM TAMRA-RNA; FRET buffer not in material. Conditions: protein: recombinant; tags: N-term MBP, TagBFP; C-term TagGFP2, 6xHis. The source holds these as a separate data set.

T1 sequence (P35637 whole entry): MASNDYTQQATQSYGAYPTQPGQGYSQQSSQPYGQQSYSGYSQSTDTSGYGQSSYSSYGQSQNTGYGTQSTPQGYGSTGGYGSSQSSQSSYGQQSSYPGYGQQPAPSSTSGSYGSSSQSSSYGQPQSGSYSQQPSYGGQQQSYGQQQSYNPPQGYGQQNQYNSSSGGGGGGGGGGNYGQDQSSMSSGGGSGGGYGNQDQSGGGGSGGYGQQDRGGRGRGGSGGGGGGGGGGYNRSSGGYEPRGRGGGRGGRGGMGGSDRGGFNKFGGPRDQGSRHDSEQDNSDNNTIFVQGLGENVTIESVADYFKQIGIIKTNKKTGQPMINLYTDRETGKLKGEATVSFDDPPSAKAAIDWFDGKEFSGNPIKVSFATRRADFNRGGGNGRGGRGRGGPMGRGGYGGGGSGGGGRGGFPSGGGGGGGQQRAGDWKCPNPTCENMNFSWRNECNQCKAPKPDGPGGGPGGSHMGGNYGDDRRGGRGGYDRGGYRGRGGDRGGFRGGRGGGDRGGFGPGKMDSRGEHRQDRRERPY

On to GTTAAGAGGGTACGGTGGTTTGATGACACTG (ssDNA) [D31], for which, in data set [1], the binding signal is 0.0594 ± 0.0039 |dE| FRET. As for GUUAAGAGGGUAC (ssRNA) [R13 (5'-pncRNA)], in data set [2], the binding signal is 0.0663 ± 0.0091 |dE| FRET. For CGGTGGTTTGATGACACTG (ssDNA) [D19], the binding signal in data set [1] is 0.0309 ± 0.0025 |dE| FRET.

Consider UUUUUUUUUUUUUUUUUUUUUUUUUUUUUUU (ssRNA) [TAMRA-U31], for which the binding result in data set [3] is given as “binds”. GAGGGU (ssRNA) [R6]: in data set [4], the binding result is on record as “binds”. Same read-out and setting: to GUUAAGAGGGUA (ssRNA) [R12] belongs “binds”. As for CGGUGGUUUGAUGACACUG (structured_RNA) [R19 (3'-pncRNA)], the binding signal in data set [2] (stem-loop) was 0.055 ± 0.0099 |dE| FRET. Turning to GTTAAGAGGGTAC (ssDNA) [D13], in data set [1], the binding signal is 0.0175 ± 0.0018 |dE| FRET.
